Experimental data: patent WO2018087143A2 (dated 2018)
Changes are numbered by the printed parent chain. One block for each binder: values may come before it.

Experiments:
[1] = target: PD-1 expressed on Jurkat cells (NFAT-luc2/PD-1 Jurkat Cells, Promega, CS187102) (UniProt Q15116 25-288, limits assumed); assay: cell-based or functional assay
[2] = target: T1, cynomolgus monkey PD-1-rCD4 (cynomolgus monkey; rat); assay: SPR, ratio of KD values, Table 2
[3] = target: T1, cynomolgus monkey PD-1-rCD4; assay: SPR (BIAcore T100), IgG2 captured on anti-human Fc, PD-1 injected, 1:1 fit
[4] = target: T2, human PD-1-rCD4 (human; rat, UniProt Q15116 25-170; P05540 207-392, limits assumed); assay: as above
T2 construct: Analyte in SPR
T2 sequence (Q15116 other isoform, or with tags, fused parts or gaps limits assumed): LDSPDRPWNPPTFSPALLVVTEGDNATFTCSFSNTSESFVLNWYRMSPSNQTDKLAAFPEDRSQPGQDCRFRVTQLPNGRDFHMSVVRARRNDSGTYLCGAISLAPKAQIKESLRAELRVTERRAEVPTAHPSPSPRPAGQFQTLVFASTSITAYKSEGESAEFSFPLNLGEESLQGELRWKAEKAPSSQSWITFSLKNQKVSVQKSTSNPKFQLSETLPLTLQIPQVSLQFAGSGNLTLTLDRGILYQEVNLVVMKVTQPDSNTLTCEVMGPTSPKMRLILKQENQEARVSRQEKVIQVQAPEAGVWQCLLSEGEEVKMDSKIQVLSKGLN

[5] = target: T3, PD-1-Fc (UniProt Q15116 25-167, limits assumed); assay: competition ELISA: PD-1-Fc (0.8 nM) premixed with 1 nM antibody, added to captured PD-L1-rCD4 (competitor)
T3 construct: not shown: Fc part, detected with anti-human IgG Fc
T3 sequence (Q15116 25-167 limits assumed): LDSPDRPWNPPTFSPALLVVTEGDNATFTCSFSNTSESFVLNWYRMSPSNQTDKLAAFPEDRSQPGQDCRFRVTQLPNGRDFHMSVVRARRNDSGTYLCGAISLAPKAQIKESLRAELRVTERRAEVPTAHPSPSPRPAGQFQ

[6] = target: T3, PD-1-Fc; assay: competition ELISA: PD-1-Fc (0.8 nM) premixed with 8 nM antibody, added to captured PD-L1-rCD4 (competitor)
[7] = target: T3, PD-1-Fc; assay: competition ELISA: PD-1-Fc (0.8 nM) premixed with 0.5 nM antibody, added to captured PD-L1-rCD4 (competitor)
[8] = target: T4, mouse PD-1 (mouse, UniProt Q02242 25-167, limits assumed); assay: SPR (BIAcore T100), IgG2 captured on anti-human Fc, PD-1 injected, 1:1 fit
T4 construct: also called murine PD-1
T4 sequence (looked up): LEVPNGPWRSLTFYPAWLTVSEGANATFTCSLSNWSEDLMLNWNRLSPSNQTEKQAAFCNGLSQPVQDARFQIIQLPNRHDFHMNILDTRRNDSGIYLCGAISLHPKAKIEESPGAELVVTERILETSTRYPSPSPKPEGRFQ

[9] = target: T2, human PD-1-rCD4; assay: SPR (BIAcore T100), IgG2 captured on anti-human Fc, PD-1 injected, 1:1 fit; Table 1 prints 3.8
[10] = target: T1, cynomolgus monkey PD-1-rCD4; assay: SPR (BIAcore T100), IgG2 captured on anti-human Fc, PD-1 injected, 1:1 fit; Table 1 prints 8.7

T1 sequence (P05540 207-392): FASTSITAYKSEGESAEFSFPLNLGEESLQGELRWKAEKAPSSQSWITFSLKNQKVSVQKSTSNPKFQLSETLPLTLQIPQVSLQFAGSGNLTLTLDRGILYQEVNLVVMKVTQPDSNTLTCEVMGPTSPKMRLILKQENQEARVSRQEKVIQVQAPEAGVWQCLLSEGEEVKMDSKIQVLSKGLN
Sequence of PD-1 expressed on Jurkat cells (NFAT-luc2/PD-1 Jurkat Cells, Promega, CS187102) (Q15116 25-288 limits assumed): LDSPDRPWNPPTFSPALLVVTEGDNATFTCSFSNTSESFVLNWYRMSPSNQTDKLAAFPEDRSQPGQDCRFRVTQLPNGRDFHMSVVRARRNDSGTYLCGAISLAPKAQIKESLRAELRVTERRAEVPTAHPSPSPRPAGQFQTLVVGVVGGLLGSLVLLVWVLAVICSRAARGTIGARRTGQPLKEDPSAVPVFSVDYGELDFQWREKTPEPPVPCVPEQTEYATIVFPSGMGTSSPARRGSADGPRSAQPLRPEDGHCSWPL

EC50, NFAT-luciferase reporter activity (PD-1/PD-L1 cell reporter assay) [1]: 11.7 nM | Fold Difference (Kd on cynomolgus PD-1 against Kd on human PD-1) [2]: 2.1 fold | Kd [3]: 21 nM | koff [3]: 0.0115 s⁻¹ | kon [3]: 548000 M⁻¹ s⁻¹ | Kd [4]: 10 nM | koff [4]: 0.0061 s⁻¹ | kon [4]: 606000 M⁻¹ s⁻¹ | % inhibition of the PD-1/PD-L1 interaction [5]: ~99% | % inhibition of the PD-1/PD-L1 interaction [6]: 99% | % inhibition of the PD-1/PD-L1 interaction [7]: ~75%
B1: 273_C01_A12 (antibody, human IgG2, kappa, V domains shown)
VH: EVQLVQSGAEVKKPGSSVKVSCKASGYTFTSYYVHWVRQAPGQGLEWMGGIIPIFGTANYAQKFQGRVTITADESISTAYMELSSLRSEDTAVYYCARDLHGYSYGYPGYWGQGTLVTVSS
VL: DIVMTQSPLSLPVTLGQPASISCRSSQSLVYSDANTYLNWFQQRPGQSPRRLIYEVSNRESGVPDRFSGSGSATDFTLKISRVEAEDVGVYYCMQGTQLPLTFGGGTKVEIKR

EC50, NFAT-luciferase reporter activity (PD-1/PD-L1 cell reporter assay) [1]: 9.35 nM | Fold Difference (Kd on cynomolgus PD-1 against Kd on human PD-1) [2]: 2.29 fold | Kd [3]: 8.7 nM | koff [3]: 0.0034 s⁻¹ | kon [3]: 387000 M⁻¹ s⁻¹ | Kd [4]: 3.8 nM | koff [4]: 0.0015 s⁻¹ | kon [4]: 392000 M⁻¹ s⁻¹ | Kd [8]: 6400 nM | koff [8]: 0.00357 s⁻¹ | Kd [9]: 3.84 nM | Kd [10]: 8.77 nM | % inhibition of the PD-1/PD-L1 interaction [5]: ~99% | % inhibition of the PD-1/PD-L1 interaction [6]: 99% | % inhibition of the PD-1/PD-L1 interaction [7]: ~75%
B2: 273_C12_C05 (original clone) (antibody, human IgG2, kappa, V domains shown)
VH: B1 VH with I76T
VL: B1 VL with S32H, A34G, E60D, A73D, T97A, Q98Y, L99R, G105Q

Kd [3]: 5.22 nM
B3: Nivolumab (IgG2 format, as used in the experiments of the filing) (antibody, V domains shown)
VH: QVQLVESGGGVVQPGRSLRLDCKASGITFSNSGMHWVRQAPGKGLEWVAVIWYDGSKRYYADSVKGRFTISRDNSKNTLFLQMNSLRAEDTAVYYCATNDDYWGQGTLVTVSS
VL: EIVLTQSPATLSLSPGERATLSCRASQSVSSYLAWYQQKPGQAPRLLIYDASNRATGIPARFSGSGSGTDFTLTISSLEPEDFAVYYCQQSSNWPRTFGQGTKVEIKR
